Key:
[1] = Small angle X-ray scattering (SAXS) of micelles; assay type: physicochemical
Experimental: The small angle X-ray scattering equipment consisted of a SAXSess camera (Anton-Paar, Graz, Austria) connected to an X-ray generator (Philips, PW 1730/10) operating at 40 kV and 50 mA with a sealed-tube Cu anode. A Gael mirror was used to convert the divergent polychromatic X-ray beam into a focused line-shaped beam of Cu Kα radiation (λ=0.154 nm). The 2D scattering pattern was recorded by a PI-SCX fused fiber optic taper CCD camera from Princeton Instruments, which is a division of Roper Scientific, Inc. (Trenton, N.J., USA). The used CCD detector features a 2084×2084 array with 24×24 μm pixel size (chip size: 50×50 mm). The CCD was operated at −30° C. with 10° C. water-assisted cooling to reduce the thermally generated charge. Cosmic ray correction and background subtraction were performed on the 2D image before further data processing. The 2D image was integrated into the one-dimensional scattering function within a band of 10 mm. The measurement time was 30 min for each scattering curve (6 images of 5 minutes were taken to assist the cosmic ray correction).
The molecular weight of the scattering aggregates were calculated according to Eq. 1:
[formula] where M is the molecular weight, dΣ(0)/dΩ (cm^−1) the forward scattering intensity at q=0, c (g/cm^3) the β-casein concentration, NA the Avogadro number, and ΔρM (cm/g) the scattering length difference per mass, given by: ΔρM=Δρ ν (2)
The scattering length difference Δρ (cm^−2) was calculated using the known chemical composition of the protein and the solvent, and ν (cm^3/g), the specific volume of the protein in the solution that was calculated via density measurement of the solvent and the solution. The micelle aggregation number was then calculated by dividing the molecular weight of the micelles determined with Eq. 1, by the molecular weight of a single protein molecule.
For a particle of arbitrary shape with a scattering density difference of Δρ(r), the pair distance distribution function p(r) (PDDF) is given by: p(r)=r^2Δ ρ^2(r) (3) where Δ ρ^2(r) is the convolution square of Δρ(r) averaged for all directions in space. The PDDF is related to the scattered intensity l(q) by a Fourier transformation, and it enables the determination of the overall shape and size of the scattering objects.
[formula] λ is the wavelength of the incident radiation and θ is the angle between the scattered and incident beam. The function ƒ(r)=p(r)/r (6) is useful to identify flat plate-like particles, although it has no direct physical meaning. For lamellae, this function starts with a linearly increasing part and becomes almost flat when r is equal to the thickness of the lamella. For flat particles with a finite base area, the outer part decreases linearly because of boundary losses. The thickness of the lamella can then be read from the transition point.
The structural characteristics of the micelles in the two pH environments were studied by cryo-TEM and SAXS (Small Angle X-ray Scattering). Cryo-TEM was used to determine the shape of the micelles and to estimate their dimensions between 4 and 40° C. This information was further used to accurately calculate the micelles' dimensions from the SAXS data, and to study how the size and shape are affected by temperature. SAXS measurements also provided the critical micelle concentration (CMC) and the micelle aggregation numbers as a function of temperature. Experiments were performed in the concentration range of 0.1-40 mg/mL protein, at low pH (between 2.1 and 2.6) in dilute lactic acid solution (6 wt %) or HCl and in aqueous solutions at pH 6.7-7.3 in absence of salts or the presence of up to 0.1M NaCl.
SAXS measurements were used to determine the shape and dimensions of the micelles at low pH more precisely, and to evaluate the micelle molecular weight (i.e., the aggregation number). The scattering curves of 20 mg/mL β-casein in lactic acid solution (pH 2.6, IS 0.0022) at different temperatures are shown in FIG. 3a. […]

[2] = Dynamic light scattering (DLS) size distribution; assay type: physicochemical
Experimental: DLS and Zeta potential measurements performed on a combined DLS and zeta potential analyzer (Nicomp 380 ZLS zeta potential/particle sizer, USA), at 25° C. were performed for size distribution and electrostatics characterization. For DLS measurements the scattered light intensity was detected with an Avalanche Photo Diode (APD) detector, used at a fixed angle of 90°. Laser wavelength was 658 nm, operating at 90 mW. Mono- bi- or tri-modal distributions were calculated from the scattered light intensity fluctuations, by Nicomp™ cumulants analysis of the intensity autocorrelation function. Zeta potential measurements were performed in triplicate.

[3] = 1 wt % β-casein, empty or loaded 1:8 protein:celecoxib, pH ~7
[4] = 0.5% β-casein, empty or loaded 1:8 celecoxib, pH ~7

B1: β-casein: bovine β-casein self-assembled into unloaded micelles in acidic or neutral buffer (protein, UniProt P02666 16-224, looked up)
Beta-casein: RELEELNVPGEIVESLSSSEESITRINKKIEKFQSEEQQQTEDELQDKIHPFAQTQSLVYPFPGPIPNSLPQNIPPLTQTPVVVPPFLQPEVMGVSKVKEAMAPKHKEMPFPKYPVEPFTESQSLTLTDVENLHLPLPLLQSWMHQPHQPLPPTVMFPPQSVLSLSQSKVLPVPQKAVPYPQRDMPIQAFLLYQEPVLGPVRGPFPIIV
modifications: self-assembled micelles
notes: bovine β-casein self-assembled into unloaded micelles in acidic or neutral buffer
Maximum micelle dimension (SAXS PDDF) ([1]; 20 mg/mL, pH 2.6, all temperatures 4-40 °C): 35-40 nm
Rg (from Guinier apr.) [1, 3]: 7.8 nm
V, from a, b [1, 3]: 2410 nm^3
Micelle Dimensions: diameter ([1]; pH 2.6, 4-40 °C): 25 nm in
Micelle Shape ([1]; pH 2.6, 4 °C): disc
Nagg ([1]; pH 2.6, 4 °C): 8
Nagg ([1]; pH 2.6, 4 °C, concentrations of 0.5 wt % and below): approximately 2
Micelle Shape ([1]; pH 2.6, 16 °C): disc
Nagg ([1]; pH 2.6, 16 °C): 10
Micelle Shape ([1]; pH 2.6, 25 °C): disc
Nagg ([1]; pH 2.6, 25 °C): 11
CMC ([1]; pH 2.6, 25 °C, by SAXS): 0.1-0.2 wt %
Micelle Shape ([1]; pH 2.6, 40 °C): disc
Nagg ([1]; pH 2.6, 40 °C): 9
Micelle diameter (DLS), after lyophilization and re-suspension [2, 4]: 21 nm
Micelle diameter (DLS), before drying [2, 4]: 19 nm
Micelle diameter (DLS) ([2]; 2 wt % β-casein, empty or loaded 1:1 budesonide, hepes buffer pH 7.0): 19.6±3.4 nm

From US8871276B2, “Beta-casein assemblies for mucosal delivery of therapeutic bioactive agents” (Technion Research and Development Foundation Ltd., priority 2008, dated 2014)
